Assay: label from the status in PepcDB records
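Further: failed if final PepcDB status was selected cloned or expressed and not failed if soluble or beyond.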

Sequence	protein production
KSAVTAQSILEKADEIRFPQDSFQVNVAIRTAAPDHAEDLYRYQVLSKGNENSIVMITEPASERGQAILMKGRDLWVFMPSVSQPIRLSLSQRLTGQVANGDIARANFTGDYHPQLLRNESIDDEDYYVLELTGIDRSVTYQKVLLWVNQSNFRPYKAEFYSVSGRLLKTSRYENFDNILGEMRPTRIIMEDALKSGEVSVLDYSDMKLRDLPDKIFTKDYLKRLE	not failed
KVDPSDFSDVLIAHTVMKPFPDAPTALYQIKAKGYETVLMTNHSRDLIQSNVINLDHEFDMIITAEDVQTYKPNQKFFDYVNDQLGNDVEKHVHVAVDEVKDLKPAQDAGWNVIKIDRKSEDAS	failed
KWIFREPSRTDGDDVYALITECPPLDINSSYCNFLQATHFSKTCVLAEKDGDLAGFISGYQEPDEPNTLFIWQVAVSPRYRGKGLAFSMLTTLLERKNLLHIEFIETTITKANNASWSLFKKIDAQYGNQGQVTTFLDKESHFKGKHDTEYLYRIPL	failed
KWLDYDFTSLRKEILDKAFQKSLTQINWIMGGYYLVMESLSFFEYEQSIQSKTVRHLILVFYLLFFMGVIKKLDTYLKEKLYERLEQEQALRYRDMERYSRHIEELYKEVRSFRHDYTNLLTSLRLGIEEEDMEQIKEVYGSVLKDSSQKLQNNKYDLGRLVNIRDKALKSLLAGKFLKARDKNIVFNVEVPEEIQVEGMSLLDFLTIVSILCDNAIEASVEASQPHVSIAFLKNGAQETFIIENSIKEEGIDISEIFSFGASSKGEERGVGLYTVMKIVESHPNTSLNTTCQNQVFRQVLTVIHTE	failed
LADVKHAQSQALFKEHMLETIFNAIPDLFFLMEVDGMIVDYHTGDQKNLYVAPHQFIGKRMTDLLPQEVVSKFQTHVDKILQQEGMITFEYELTMPHGLVHFEARMSYLPEYNQIVLIIRDIS	failed
LAEKAGIGVWSYEPETQRIDWAPDALALMGVSPEDIATPELFLARLPENHRAEVQAAFVHAARTGEGGTLEYRLRANDGRWFTLRATYRTEARPGSGFALKGVSQNITDVARS	failed
LDALRRYHRQTLQELPMGVCSLAKDQEILMWNKAMEELTGIPAQHVVGSRLSTITNPWKDLLQGFINLPDEHLHKQHLALDGQTRWLNLHKAAIDEPLAPGNSGLVLLVEDLTETQTLEDKLVHSERLASIGRLAAGVAHEIGNPITGI	failed
LDHITVVTADGKVALNQIGQISMKSPQVILVNMASFPECTAAAIKAIRESGMNLNPEVEGTLIRVPIPKVT	not failed
LDLQIIMDDLLNLLLKEFKLDLAVIRLVDEKGVLRVRSYSGKGIAGIAGKDWEPEIETYIGEAFLSNRLQFVNDTQYMTKPLTRELMQKEGIKSFAHIPISRKGEPPFGILSVFSRTIVGLFNEPFLNLLESLAGQLAQAVKIVTEMEAKEREREEKERILLENARVVKEMEIAKQIQLSLLPSAPPTLPRH	failed
LDPGLQPGQFSADEAGAQLFAQSYQSSAEQVLFQSVAASWAHDTNITAENARRQEEAALLSQEFAEAWGQKAKELYEPIWQQFTDPQLRRIIGAVRTLGSANLPLAKRQQYNALLSQMSRIYSTAKVCLPQKTATCWSLDPDLTNILASSRSYAMLLFAWEGWHNAAGIPLKPLYEDFTALSNEAYKQDGFTDTGAYWRSWYNSPTFEDDLEHLYQQLEPLYLNLHAFVRRALHRRYGDRYINLRGPIPAHLLGDMWAQSWENIYDMVVPFPDKPNLDVTSTMLQQGWQATHMFRVAEEFFTSLELSPMPPEFWEGSMLEKPADGREVVCHASAWDFYNRKDFRIKQCTRVTMDQLSTVHHEMGHIQYYLQYKDLPVSLRRGANPGFHEAIGDVLALSVSTPEHLHKIGLLDRVTNDTESDINYLLKMALEKIAFLPFGYLVDQWRWGVFSGRTPPSRYNFDWWYLRTKYQGICPPVTRNETHFDAGAKFHVPNVTPYIRYFVSFVLQFQFHEALCKEAGYEGPLHQCDIYRSTKAGAKLRKVLRAGSSRPWQEVLKDMVGLDALDAQPLLKYFQLVTQWLQEQNQQNGEVLGWPEYQWHPPLPDNYPEGIDLVTDEAEASKFVEEYDL	not failed
LDVGCNQGGFLRKLYDTTPFKEGVGIDLARLSLEKAETLKGERPLTYYLTDKPQETNRTFDTAVSTSVLYLIEDIPQHAQDLKEVLKPGGVYYASFADLTNNPSRQFMDDTINQYGATPSQNHSLKHIVDSFVDAGFEVAVMKEPVPDVIDLTHYSDFYLSPNDYLQTLYEESFLIKASVKEGIGK	failed
LEAPRDLEAKEVTPRTALLTWTEPPVRPAGYLLSFHTPGGQTQEILLPGGITSHQLLGLFPSTSYNARLQAMWGQSLLPPVSTSFTTGGLRI	not failed
LEEFKNSSKLVAAAEKERLDKHLGIPCNNCKQFPIEGKCYKCTECIEYHLCQECFDSYCHLSHTFTFREKRNQKWRSLEKRADEV	not failed
LEIKQLLNIYRDLQLGHFCAFYQPQKHIDSGGVVAFEALARRVIGKGLYEMPDRFFPILEKYHLIPTLTEVMVRDILTFLMTEDAVLQDITIGVNIPGKMLTDGSFYRLLLSVAEEKQAQHALHRLSVEITEHDLIADFDAAKHEIYKLKSLGIRCALDDFGTGYSGYEYLCEIPFDVVKIDGRYIQSLGKAESSTVILQSMISSIKSLSMQVIAEWVDSDQQYQILQEMGCDLVQGYLVSPAISPQQVLNYLHNKLSP	failed
LERDEQIRLQDDFLFRSQFNIGNIGIAITGIDQKWIKVNPRLCQMLKYSEDELLHMTWKQLTHPDDLDADVAKFEQMLAGNIDNYELDKRFIAKNGSLVYTHMTVACKRTNHQVLLVISGYLDVTAQTLADRE	failed
LERMVQTRRGLEIIIDAASTLYDFKSMQRLAEGVLTQLASLLNVDCAGILVLRDAGDELAVLAGSGCYSRFIGTTGHSNSLDPDLRQMVEEAFRRRKHEFADHRTVLYIRTGSGREVVVLLQAERELSDTDRSLVEIFGSRLSIAFDNVILYRQLHEANTQ	failed
LEVLVKTLDSQTRTFIVGAQMNVKEFKEHIAASVSIPSEKQRLIYQGRVLQDDKKLQEYNVGGKVIHLVERAP	not failed
LFSDASGEQRLQKIIGQIKKDGSGKDYDCIIGLSGGVDSSYLAVKVKDLGLRPLVVHVDAGWNSELAVSNIEKIVKYCGFDLHTHVINWEEIRDLQLAYMKAAVANQDVPQDHAFFASMYHFAVKNNIKYILSGGNLATEAVFPDTWHG	failed

Sequence	protein production
LFTESAKAVLAIAQEEAKYFRHQSVGSEHLLLALVLEPNGIAGKTLRQLNTDTEDIREEIEHLSGYGTMQSPMGNNNLYLPYSPRAKQIFAYAGDEAKRLGAQKIGTEHLLLGLLRDEEILASRILVNLGLSLSKMRQLLLKKMG	failed
LGINEISSSFFSLLLEILLLESQASLPMLEERVLDWQSSPASSLNSWFSAAPNWAELVLPALQYLAGESRAVPSSFSPFVEFKEKTQQWKLLGQSQDNEKELAALFQLWLETKDQAFCKQENEDSS	not failed
LKGEPDCYALSLESSEQLTLEIPLNDSGSAGLGVSLKGNKSRETGTDLGIFIKSIIHGGAAFKDGRLRMNDQLIAVNGETLLGKSNHEAMETLRRSMSMEGNIRGMIQLVILRR	not failed
LLLLHGFTSHPVLTLGPLSERLKEAGWEVRQPALPGHGTRPEDLLKVRFQDWLLAAEEAYLELPEPRGVVGLSMGGLLAAHLAARHPTKALVALAPAFALKNPLAPYLHWLIPRFPGPPSIEDPELRKRNPNYPYFPTRAVLELLALMRKTPEVLPRVKARALVVEAGKDRVVKGVDRYFALLGSPRKDHLVFPESGHDLLLDRDREEVARAVRDWL	failed
LLTRQLEKSRQQQQLMVAIALIIRQSLKLEDILSVTVAEVRQFLQADRVLIYQFQPDMSGIVVAESILPGWIATKGAQIEDKCFQDSAGHNHQLKKRAINDIYQAGLTNCYLELLEQFQVKATLIVPIMVTNKSWGLLIAHQCAAPHHWQSFELDLLEQLAVQIAIAIQQASAYEQIQTELQERKRVEATLRESEQRFRQMADTAPVLIWMSGL	failed
LPKLREDFKMQNKSVFILGASGETGKVLLKEILGQNLFSKVTLIGRRKLTFEEEAYKNVNQEVVDFEKLDVYASAFQGHDVGFCCLGTTRSKAGAEGFVRVDRDYVLKSAELAKAGGCKHFNLLSSRGADKSSSFLYLQVKGEVEAKVEELKFDRLSVFRPGVLLCDRQESRPGEWLARKFFGSLPDSWASGYAVPVVTVVRAMLNNLVSPSSGQMELLENKAILHLGKDRDVPKL	not failed
LPKPGVYYFPWEVSDGHVPEGSTLRTFGRLYLYDMARSLMTLAAPQKPDQCQLLVCTNLVEPFEAHVNFLYMVLGDLERMEGGAFVVRARLLTCVEGMDLSLLEKAILEQRRHLQKRQQPIGDASTLQTPTPAPQSIPSDSLSLEPENRG	failed
LRETEARLQRLADNLPGMLYEFCLKPDGTMTFPYVSSGCLELIECSPQELQDDASLTFASTYPEDIIGLQEAIANSAKTLQNFEHEWRIITSSGQLKWVKGASRPERKPGGEITWYGYLLDVSEQQAALRERKQADQQ	not failed
LRGMLPGSKLCEKKIVLSPSANMAAELKSEGKLFMLKRLRLADLEPMAIETSLLPINRFPSLENRNFENESLYEILEEEYNIKMTKAQQKIEVRMPTPQESELLDINYTIPVFHFKQVTFDQNDTIFEVAHSVYRGDRYEIETEIYR	failed
LRKQVEELFERKYAQAIKAKGPVTIPYPLFQSHVEDLYVEGLPEGIPFRRPSTYGIPRLERILLAKERIRFVIKKHELLNSTREDL	not failed
LRRGHLKLQRDGQIIGHTPEEWEQIFREVWPEYEIEPNPLPGYAPFDIGMWLTVEAPAYAVWIDPEDGSEYWAG	failed
LRSRRKPSSRIGRRPSTTQDRISTVGIELFTEQGFDATSVDEVAEASGIARRTLFRYFPSKNAIPWGDFDAHLAEMRAQLAAQPDDIPIVDGLTAALLQFNAFPASEEINHRKRMGLILRVPALQAYSVVMYEGWRNVIAEYVASRLGTSPTDHVPRTVGYLLLGVAMSAYEQWLDDDSLELNELLASGMQSLYDGLSSLGEPDTRT	not failed
LSPQVRTAHIGDVPVLVRLMSEFYQEAGFALPHDAAIRAFKALLGKPDLGRIWLIAEGTESVGYIVLTLGFSMEYGGLRGFVDDFFVRPNARGKGLGAAALQTVKQGCCDLGVRALLVETGPEDHPARGVYSRAGFEESGRMLLGQALAPPIHEA	not failed
LSQAEQDKLDAAVFRQLLQHLDQHKEVQNIDLMILADFCRNCLCKWYAAEAEKQGLDLNIDDARERVYGMTYDEWKANHQPPATPEQLAAFEAKTKSK	failed
LSRVGSAEWNLLTDEATWSGELYQILGRDPAAPPLTLDELPSFVHDEDRPRLTAMVTDCLIDAKPIDGEFRIVRPDGGVRTVHMMGEPVLDAHGSTASMWAVLRDVSE	not failed
LTAIEARVIGCLIEKEVTTPDQYPLSLNALTNASNQKSNREPVMALSESDVLDAVDALIERRLVSDESAFNSRVSKYQHRFCNTEFGDLKLSEQEKGIICCMLLRGAQTPGEIRTRTNRLATFHDVKEVEAVLEHLASEEKGPLVVKLPREAGKRESRYMHLFCGEVDVSAMAAAVPAT	failed
LTESEERWRLALDAANLGFWDWNVLTAKVVWSENHERLFGLVSGSFDGTYETFLSCVHPEDRESVIQVIGVCLENKTDYYDEFRIVWPDKSIHWIAAKGRFFYNDQGQPVRMIGVCMDITKSKRTEEN	failed
LTSSNALRGDAHSRLAAHRGLLERTSRTTRVAGILRDAIIDGTFRPGARLSEPDICAALDVSRNTVREAFQILIEDRLVAHELNRGVFVRVPTAEDITELYICRRVVECAGVNGFDPATGDLSRVAEALDLADERYAVEDWTGVGTADIHFHSALASLNNSNRIDELMRSVWNEARLVFHVMDDAHRFHGPYLTRNHEIYDALAAGNTEAAGQLLKTYLEDAEAQILGAYRPVSG	not failed
